This data set relates to MS2 coat protein. In words: apparent KD of MS2 coat protein; designed switch direction (-1 OFF switch, 1 ON switch): -1; higher = weaker reporter binding. The method, boiled down: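 Three titration conditions were used: no input, 200 uM small-molecule ligand, and an oligonucleotide input. In each, SNAP-549-labelled MS2 coat protein was raised from 0.7 or 1.5 nM, doubling, to 3 µM over designed RNA switches transcribed on Illumina chips by stalled E. coli RNA polymerase. Curve fits of normalised cluster fluorescence gave values whose per-design median over clusters is the apparent KD.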

Setting [1] is: Eterna round: R95, input ligand: FMN 200 uM.
Setting [2] is: Eterna round: R95, input ligand: microRNA oligo, concentration not stated.
The mark [3] stands for this setting: Eterna round: R95, input ligand: none.
The mark [4] stands for this setting: input ligand: microRNA oligo, concentration not stated.

On to “GGGUUUCCGCAGGAUAUACGAUGGCGCAAUGUAGUAGAAGGGCGGACAUGAGGAUCACCCAUGUUCGUUCCUCG [EX6 C.25] (Eterna round: R97, puzzle: Exclusion 6)”, for which the “apparent KD of MS2 coat protein” value was found to be 26.4 nM (input ligand: FMN 200 uM) and 14.6 nM (input ligand: none). “GGGUUUGGAGGAUAUACAUGAGGAUCACCCAUGUACCCGGGCCCUAUUGGGUUUGGGUGUAGAAGGCCGGGCCC [-33.9, -31.3 kcal, A 19%, 5bbis,5b] (Eterna round: R97, puzzle: Exclusion 3)”: the “apparent KD of MS2 coat protein” value was 20.4 nM (input ligand: FMN 200 uM) and 17.7 nM (input ligand: none).

“GGUAAGCUAGGAUAUGCUUUGGGAAAGCAUUCCUUCGAUAAACUUGAGGAUCACCCAAGUAGAAGGAGCUUACC [salish99_ex2_r4_016] (Eterna round: R97, puzzle: Exclusion 2)”: the “apparent KD of MS2 coat protein” value reads like this: (input ligand: FMN 200 uM) 19.8 nM; (input ligand: none) 11.8 nM. Consider “GGUAAGCUAGGAUAUGCUUUGGGAAAGCAUUCCUUCGAUAAACUUGAGGAUCACCCAAGUAGAAGGAGCUUACG [salish99_ex2_r4_015] (Eterna round: R97, puzzle: Exclusion 2)”, for which the “apparent KD of MS2 coat protein” value (input ligand: FMN 200 uM) turned out to be 16.7 nM and the “apparent KD of MS2 coat protein” value (input ligand: none) was 12.8 nM. For “GGUACUAACACGAAAGUGUUAGUACAAUAAGCUUGUGAAACAUGAGGAUCACCCAUGUCCUCAUAAGCUCGUCUUAA [salish99_TOv2_r3_004] (puzzle: Sensor v3, turn-off variant 2)”, the “apparent KD of MS2 coat protein” value under setting [1] was 14.4 nM, the “apparent KD of MS2 coat protein” value under setting [2] came out at 238 nM and the “apparent KD of MS2 coat protein” value under setting [3] worked out at 13.3 nM. For the sequence “GGUACUAACACGAAAGUGUUAGUACAAUAAGCUUGUGUUACAUGAGGAUCACCCAUGUCCUCAUAAGCUCGUCUUAU [Mat - Sensor v3 - Turn-off var 2 - D52] (puzzle: Sensor v3, turn-off variant 2)”, the “apparent KD of MS2 coat protein” value under setting [1] was found to be 112 nM, the “apparent KD of MS2 coat protein” value under setting [2] was 38.8 nM and the “apparent KD of MS2 coat protein” value under setting [3] amounted to 126 nM. As for “GGUAGAGUGGUAGGAUAUCCGACUGUUUCAGACGGAGAAGGACCACAGUCACUGGGUCCAAAUAUCAUGGAGACCUGAUCUACC [pwkr exNG1 F6.8] (Eterna round: R96, puzzle: Exclusion NG 1)”, the “apparent KD of MS2 coat protein” value was determined as 983 nM (input ligand: FMN 200 uM), 556 nM under setting [4] and 634 nM (input ligand: none). Consider “GGUAUACAUGAGGAUCACCCAUGUCAGGAUAUGGAAACCUGUGCCGAAAGGCACAGGGCCAGAAGGGACGAUAG [AK-MS2ROC-r4-exclusion1-5.3] (Eterna round: R97, puzzle: Exclusion 1)”, for which the “apparent KD of MS2 coat protein” value reads like this: (input ligand: FMN 200 uM) 93.7 nM; (input ligand: none) 82.9 nM.

Turning to “GGUCAGACGGUAGGAUAUCCAUAUCGAGUGACCUUUUCAUAACAUGAGGAUCACCCAUGUCGGUGGGAGAAGGGCCGUACGGCG [salish99_ExNG02_R04_004] (Eterna round: R96, puzzle: Exclusion NG 2)”, the “apparent KD of MS2 coat protein” value runs as follows: (input ligand: FMN 200 uM) 114 nM; under setting [4], 78.2 nM; (input ligand: none) 93.2 nM. “GGUCAGACGGUAGGAUAUCCAUAUUGAGUGACCCUUUCAUAACAUGAGGAUCACCCAUGUCGGUGGGAGAAGGGCCGUACGGCG [salish99_ExNG02_R04_006] (Eterna round: R96, puzzle: Exclusion NG 2)”: the “apparent KD of MS2 coat protein” value stood at 205 nM (input ligand: FMN 200 uM), 214 nM under setting [4] and 411 nM (input ligand: none). Consider “GGUCCACAUGAGGAUCACCCAUGUGAGGAUAUGCAGCGGGAGCCGCCGCCGAACCGAUGUAGAAGGCACACCUG [Eternabot (Original) Solution 19] (Eterna round: R97, puzzle: Exclusion 1)”, for which the “apparent KD of MS2 coat protein” value (input ligand: FMN 200 uM) came out at 19 nM and the “apparent KD of MS2 coat protein” value (input ligand: none) stood at 20.4 nM. Consider “GGUCCACAUGAGGAUCACCCAUGUUAGGAUAUCUCGCCCGAGUCGUUAUGGGCCAGGCAGAGAAGGAAUGUGAA [Cebeisve] (puzzle: Exclusion 1)”, for which the “apparent KD of MS2 coat protein” value under setting [2] was 18 nM. Take “GGUCCCAGGCAGGAUAUGCAAGCCACACAUGGCGCAGAAGGGCUCACAUGAGGAUCACCCAUGUAUUUCGUUUU [Eternabot (L1) Solution 19] (Eterna round: R97, puzzle: Exclusion 6)”: the “apparent KD of MS2 coat protein” value worked out at 86 nM (input ligand: FMN 200 uM) and 42.3 nM (input ligand: none). As to “GGUCGACAUGAGGAUCACCCAUGUCAGGAUAUCGUCACUGGAGCCUCGGCUCCAGUGACGAGAAGGGACAUAAU [E1/14-A2] (Eterna round: R97, puzzle: Exclusion 1)”, the “apparent KD of MS2 coat protein” value is, setting by setting: (input ligand: FMN 200 uM) 23.4 nM; (input ligand: none) 31.4 nM. For the sequence “GGUCGCUUUGUCAGGAUAUCAGGUUAGAUCUGAUUUGAGAAGGGACAUGAGGAUCACCCAUGUGGCGACCUAAA [Eternabot (L1) Solution 42] (Eterna round: R97, puzzle: Brourd's mod of Exclusion 4)”, the “apparent KD of MS2 coat protein” value by setting is: (input ligand: FMN 200 uM) 26.4 nM; (input ligand: none) 31.7 nM.

As to “GGUCGGCGAGGAUAUACAUGAGGAUCACCCAUGUGAGAUAGUGCACGCGUACGUGUACGUAGAAGGCGCUGACG [JL-ex3-3.25 salish99 mod] (puzzle: Exclusion 3)”, the “apparent KD of MS2 coat protein” value by setting is: under setting [1], 26.1 nM; under setting [2], 12.4 nM; under setting [3], 8.3 nM. For the sequence “GGUCUUCAAGUCAGGAUAUCGUCUAAUCGGUCUGGCGAGAAGGGACAUGAGGAUCACCCAUGUCGUCUCAUCAG [Ex4 #15] (Eterna round: R97, puzzle: Brourd's mod of Exclusion 4)”, the “apparent KD of MS2 coat protein” value is, setting by setting: (input ligand: FMN 200 uM) 27.1 nM; (input ligand: none) 20.4 nM. With “GGUGAAGCAGGAUAUGUAUCGAUAUACAUGAGGAUCACCCAUGUCAUGUUUGAAUUGCAUAUAGAAGGGCUUCACC [Exclusion 5 (FMN-MS2 slide v.3)] (Eterna round: R97, puzzle: Exclusion 5)”, the “apparent KD of MS2 coat protein” value was 16.4 nM (input ligand: FMN 200 uM) and 13.8 nM (input ligand: none).

Take “GGUGAGAGCAAGGAUAUGCAGAAGAGAGAAAGAGCAGAAGGUGCUACAUGAGGAUCACCCAUGUAGGAUGUGUU [JR_E6_Sub013] (puzzle: Exclusion 6)”: the “apparent KD of MS2 coat protein” value under setting [1] was determined as 15.2 nM, the “apparent KD of MS2 coat protein” value under setting [2] came to 13.4 nM and the “apparent KD of MS2 coat protein” value under setting [3] was 13.4 nM. For “GGUGCGUAUGUGAGGAUAUGCUGGUCCUUGGAUCCGCAGAAGGCACAUGAGGAUCACCCAUGUGGUGUCGUACC [salish99_Bmod_Ex4_022] (puzzle: Brourd's mod of Exclusion 4)”, the “apparent KD of MS2 coat protein” value under setting [2] stood at 139 nM. Regarding “GGUGCGUAUGUGAGGAUAUGCUGGUCCUUGGAUCUGCAGAAGGCACAUGAGGAUCACCCAUGUGGUGUCGUACC [salish99_Bmod_Ex4_024] (Eterna round: R96, puzzle: Brourd's mod of Exclusion 4)”, the “apparent KD of MS2 coat protein” value is, setting by setting: (input ligand: FMN 200 uM) 105 nM; under setting [4], 411 nM; (input ligand: none) 506 nM. In the case of “GGUGCGUAUGUGAGGAUAUGCUGGUCCUUGGAUCUGCAGAAGGCACAUGAGGAUCACCCAUGUGGUGUCGUACC [salish99_Bmod_Ex4_024] (puzzle: Brourd's mod of Exclusion 4)”, the “apparent KD of MS2 coat protein” value under setting [2] came to 276 nM.

Regarding “GGUGCGUAUGUGAGGAUAUGCUGGUCCUUGGCUCGGCAGAAGGCACAUGAGGAUCACCCAUGUGGUGUCGUGCC [salish99_Bmod_ex4_056] (Eterna round: R96, puzzle: Brourd's mod of Exclusion 4)”, the “apparent KD of MS2 coat protein” value (input ligand: FMN 200 uM) is 46 nM, the “apparent KD of MS2 coat protein” value under setting [4] came to 14.9 nM and the “apparent KD of MS2 coat protein” value (input ligand: none) amounted to 19.8 nM. With “GGUGCGUAUGUGAGGAUAUGCUGGUCCUUGGCUCGGCAGAAGGCACAUGAGGAUCACCCAUGUGGUGUCGUGCC [salish99_Bmod_ex4_056] (puzzle: Brourd's mod of Exclusion 4)”, the “apparent KD of MS2 coat protein” value under setting [2] was determined as 15.3 nM. For the sequence “GGUGCGUUUGUGAGGAUAUGCUGGUCCUUGGAUCAGCAGAAGGCACAUGAGGAUCACCCAUGUGGUGUCGUCCC [salish99_Bmod_Ex4_041] (puzzle: Brourd's mod of Exclusion 4)”, the “apparent KD of MS2 coat protein” value under setting [2] was determined as 210 nM. The same measure, in the same setting: as for “GGUGCGUUUGUGAGGAUAUGCUGGUCCUUGGUUCCGCAGAAGGCACAUGAGGAUCACCCAUGUGGUGUCGUACC [salish99_Bmod_Ex4_044] (puzzle: Brourd's mod of Exclusion 4)”, the figure is 148 nM; as for “GGUGCGUUUGUGAGGAUAUGCUGGUCCUUGGUUCUGCAGAAGGCACAUGAGGAUCACCCAUGUGGUGUCGUACC [salish99_Bmod_Ex4_042] (puzzle: Brourd's mod of Exclusion 4)”, 64.5 nM; as for “GGUGGACAUGAGGAUCACCCAUGUGAGGAUAUCGGCCGGCUCGUGGUGGCUGGCUUCUCGAGAAGGCGCAUAGU [Exclusion 1 V75] (puzzle: Exclusion 1)”, 50.6 nM. As to “GGUGGACAUGAGGAUCACCCAUGUGAGGAUAUCGGCCGGUUCGCGGUGGCUGGCGUCUCGAGAAGGCACAUAGU [Exclusion 1 V72] (puzzle: Exclusion 1)”, the “apparent KD of MS2 coat protein” value under setting [2] is 86.4 nM. As for “GGUGGACAUGAGGAUCACCCAUGUGAGGAUAUCGGCUGGCUAGCGGCGGACGGCUGCUCGAGAAGGCGCAUUGU [Exclusion 1 V84] (puzzle: Exclusion 1)”, the “apparent KD of MS2 coat protein” value under setting [2] came to 61.1 nM.

As to “GGUGGACAUGAGGAUCACCCAUGUGAGGAUAUCGGCUGGCUAGCGGCGGAUGGCUUCUCGAGAAGGCGCAUUGU [Exclusion 1 V82] (puzzle: Exclusion 1)”, the “apparent KD of MS2 coat protein” value under setting [2] was found to be 67.7 nM. “GGUGGACAUGAGGAUCACCCAUGUGAGGAUAUCGGCUGUCUACUCGCUGACGGCUGCUCGAGAAGGCGCAUUGU [Exclusion 1 V89] (puzzle: Exclusion 1)”: the “apparent KD of MS2 coat protein” value under setting [2] amounted to 38.6 nM.

(Values after the supplement of paper PMC9170038.)
